Measured values as given in the DeepSol protein solubility set.

Test: soluble on expression in E. coli; label from the status in PepcDB or PDB records

Sequence | soluble on expression in E. coli
MGYPVILHLRGRRAVVVGGGKVAARKIHGLLEAGAEIVMIAPEAEPELQALAAGGMIVWKKKRFDPDDLAEAFLVIAATNDRKVNEAVTQAASSGQLVNVVDDPERCDFHVPAVIRRGPLTIAVSTGGASPAVARRIRRELEEKYGEEYRPYLEFLQRARGIVLREVEDAEGRKRLFQALAADSFRQSGRWEEEFTRLLAKEKERNKEGERGR | soluble
MDSAFVDRAWDKWVTTGNVGSSDFEKKMKNPERKNKMLLFGDLIVGICSGPSRLLSTIAKQEGIDIYPVDLKQFIDFMRCGNLPTETFVLGSNQCKNIITSIHENWFAARCLNTSQPAGEGAIVMQTAVYVLVALYDGSIGSASQAMAAADQFASQLSRKNF | soluble
MNMFNRKAKQEVTKKPEASNGSKNSKSTFVNSKSPNQKRREVKKSDSDTESSHKNTRRTKPVPVPAASSNSKGSNEKHKRKSVQQVVKKVVNHIPFSPSKQPKSTSTPPVSEGNRKRLAMADVSINQLESEMDSFVKKIEPNERRATQYIHSNSLSRSNEAVPPGNVKTSQQKADHHLIRTTRSLIGLDGETEAVYSKATKASPDKGKLTADSPSSRRTSKSLEENSSETTNDSISLADDEETREAYRKLFKDFAMSSQKMTLDDFKQEFSNLPGDPPSDLCTVFNHPVNNKKNRYSNIPCLDISRVQLKFKMPNKNSTDYIHANYIRSPFLKRGYILTQGPKKETRADFWRMIWQENTTAIVMLCQFLETNREKCAEYFPRNAHCCLQFDKFSVNYEDSTVNKSLVTTRLNLSYEGETRLITHWLWKEWPDWQVPESSEVMLKILRKIRARSTPPVIHCSAGVGRSGTLMAVEIALQSIHTHFTLPDIKQIVSHLRVTGRAASVQTLQQYMLIWKVLLDFGVAYKQITEELAEKFNSTYRRSLRSINGT | not soluble
MSCPYIDEDKIVGNVEMELKKGGTFDKLRKQAIEHVKDSKLVHRIENEMLVKVDEIIASSANLTQEEIQRKMKDFMNENAKMRNDINRQIRVEFEKEWVHDELDKEIDEKVNKQLENSI | not soluble
MSLAEQLAIADLQVDIKQIPLKQPFVTALHRVDAVNAVRVTVRLANGVTGVGTCTPNEKVTGDSLSSARAVIEETIKPLVLGKNLTDWKELLNTVKTSIVHNAPAKAAVEIALYNTRANLFGLTLSQLLGGKGGSVETDYTISIGKAEQMIADAQKMVDQGFKTLKLKLGAGHLKRDIKLVEDLAYAAGPMVHLRLDMNQACDVRQTMQAAEYWHKQGLLIDFIEQPVPAWDLDSMAYLTRHSPYPIMADESVESYEDAQRVLAKNACDYINIKLMKTGGLSEAQKINDLAESRGVPTMVGSMIESIESLAAACAFYRANPNTIFADLDAIFMVDQDPDLNSYAECVGDNIVVREGHHHHHH | soluble
MPRRIDKVSSMTKGHITMSMNKLNLFNIYRKDPLQYFGKTLYQQKWAAKTETRNYHGQQIKEKRFKNVLFDSNLKTYSQLDASLKGHDVAPTPITLQTYGTLEKRLEIALFRSMFASSVRQARQFILGGYVKVNGVVIKHPSFPLQSGDVFSVDPEKVLFALGKTKPSLEKALSVDKKQIKKWNNYVFEAKKNPEKIWDLKQNKPDSLDTLKQVEDFEKQKKSVQNAQKLMKIQQNQVTRQSILQEIIQLGNAASEPASLETFNKYGDVARTKCLQIYQTLTNKNHPITKDPSTKNIEGFLAKDENKSPEEKHEVRLINSTLRELQSSEWERIRIQFENFEEGTDTKFFQTSFAKALRGVPKLNKEEILEDESKAKVQLPWQKHLFGRKDPSRSYFTPWTPRPFLGAFAILPSHIEISFDTCHAIYLRDPVARPGHSEVISPFPDHVHERAYMYYVRKGKS | not soluble
MSLRKRIIEVSTDYKILIVDDEEGIINSMKVMLTRSGYFCMGISNPLEAIETLKKEHFDMLILDYIMSPIHGDEVVAKIREFNKDIYILLLTGHKDLAPPLETIKALDIQGYCEKGDKFDQLLLLIESGIKSISQMRTIRQFKDGLNRILQAVPKIYQLQPIGVILEEILQGLMPLVNSKDAFILVDDCNSGEGKIIFKGVGEYDIKAESLVTMLSPELMENIGRARDSKKVLLLDHGIILPLTNEQNKSIGVIYIESSNLGDGIKLLEIYSTQAASSINNAFLHSLINMKKEELDRTYQELRKRYIDTIEALRLTVDAKDIYTRGHSDRVAYYAVKLGEAFGLPEDQLELLKVGGIFHDIGKIGTADDILFKTDKLSYDEYEEIKKHPLKGAYILSAISMFKDVVPLVKYHHERIDGKGYPEGLKGDEIPFLARILTVADAFDAMMSDRKYRSKLSLEETKEQFRLYSGTQFDPQVVEKLFEILENYDLMLEELSKTFTEGHHHHHH | soluble
MAHHHHHHMSTYDKSDQIGYDETDHTLNAELEEMMARTPPEVQRHLQHRIHDGILQRMKEETTRKCITFIQKYEQCVNSQKPYNMKLCYPHRDAMNGCAQEVNREENYQRYRIMYLRGELLKYHEKRTAGKMEAFKVRAPDAIRAWKHDYAPKYMHIMEDLGVAPLGTAAGTAEESTNSK | not soluble
MRSFIISSALLVILVQCGYPVAENSYPTTPSYPTPPPSYPTPKKYPVAPTYPSPPAYAQKPSYSAPPPPAPSVYSSSSFSDNEVASDSEYTTASPNSEYRKRAKARTAHNRKFQRRALTPIRRFQQKKQ | not soluble
GPGSMTTLVLCDGSEGSLRSIEVACAGNATPTSSMPSQEGSLLLLHVWDTPATRTSVLHPSVGAEGMYTPRRSVSSAAAAAAQTSADAGGHGGSSMPCADVLTTTLQYIHTNKYLKNKLHYTVETTCASTVFARDNTDHSVLSEAGAAPAGGTAASQAAHGRAGQGQKRASCSAGGAGSARRRSDRRPSQRQIDTAAEISAGSSNNTGDGTAPERQEAPVSIPENEKRAMAVVKYATARAAHHHVTAVLLGVGQRQDGKVCTVGAVAQGVLLELRSLYPLYYVKKDGVKWRPALSTTTTTTAATPRRFTIVVAVPADARWESATAAETRSGNEEAAAQTTASIETPSVAPPQVPIHVQEAVAATVQYVQTRCMRLHAALQVEQITFAVIATSSSQDGNSITEPDRGENGGHVAAGPDASGGKDGSTWISPLEAYKRHLESLPFVECKSIPPANAAAPLLSPVNRINPAAVGETGGIEQHLPEDGAAMMCVEGSATGAPAPRGAASPVAVCVLKASKKNPLLSLDSEPEVALPQIIKQVGSLKPEVLVMPKSLVPESLQLALLATSNPHCIVLPF | soluble
MGSDKIHHHHHHMFRIQLRTMSSKTCKSDYPKEFVSFLNSSHSPYHTVHNIKKHLVSNGFKELSERDSWAGHVAQKGKYFVTRNGSSIIAFAVGGKWEPGNPIAITGAHTDSPALRIKPISKRVSEKYLQVGVETYGGAIWHSWFDKDLGVAGRVFVKDAKTGKSIARLVDLNRPLLKIPTLAIHLDRDVNQKFEFNRETQLLPIGGLQEDKTEAKTEKEINNGEFTSIKTIVQRHHAELLGLIAKELAIDTIEDIEDFELILYDHNASTLGGFNDEFVFSGRLDNLTSCFTSMHGLTLAADTEIDRESGIRLMACFDHEEIGSSSAQGADSNFLPNILERLSILKGDGSDQTKPLFHSAILETSAKSFFLSSDVAHAVHPNYANKYESQHKPLLGGGPVIKINANQRYMTNSPGLVLVKRLAEAAKVPLQLFVVANDSPCGSTIGPILASKTGIRTLDLGNPVLSMHSIRETGGSADLEFQIKLFKEFFERYTSIESEIVV | not soluble
MAHHHHHHMQVTETVLARAVIKRRSPQLWGAPGAPIIRMRGHHVVWKFQSYDLVVEHTHKRRNSDIRLLHYLGKHCPHPQKSLWSPDTPVAQDRHLFMLTTVDIDAFKYWFGVKRCRLSMKPWALLAKAGLLPPSLTQNSKIMPKPLFDKESLMRYYLANRKDEDVMAREKYLNYENSMVKTEEERAAERPVAPYL | soluble
